From paper PMC6307458, “Inhibition of Inflammatory Changes in Human Myometrial Cells by Cell Penetrating Peptide and Small Molecule Inhibitors of NFκB” (Frontiers in Immunology, 2018)

System: human myometrial cells
Assay: Live cell confocal microscopy, delivery of rhodamine cargo
Settings: live cell spinning disk confocal microscopy; primary human myometrial cells; 1, 3 and 10 μM; 60 min; 37°C, 5% CO2; serum-reduced media (0.1% FCS); 3 independent experiments
Description: Cells were washed in phosphate buffered saline and changed to serum-reduced media (0.1%FCS) for 18–24 h ([39]).
Initial images were collected to assess baseline cellular auto-fluorescence prior to the addition of varying concentrations of fluorophore-CPP/fluorophore- CPP-Cargo/fluorophore-control peptide combinations (see Table 1) that were ready made up in serum-reduced cell media. Further images were captured 60 min following application.
To make a thorough assessment of fluorescent uptake throughout whole cells, all images were captured as a series of slices in the Z plane (range 3–10 slices per area selected, each slice 0.54 μm apart) with the 40x objective using live cell spinning disk confocal microscopy (Andor Revolution XD coupled to an Olympus IX-81 inverted microscope; Andor Belfast UK). All images were digitally recorded with IQ2 software (Andor, Belfast, UK).

Substance | delivery of rhodamine fluorophore internal to the cells
Rhodamine-RQIKIWFQNRRMKW-Aca- TALDWSWLQTE [rhodamine Pen(43-56)–NBD] | demonstrated ability to enter myometrial cells
Rhodamine–RQIKIWFQNRRMKWKK [Penetratin, conjugated to rhodamine] | able to enter uterine cells
